Key:
[1] = target: Protein A (UniProt P38507); test: electrochemical impedance spectroscopy (EIS); Protein A (0.25 mg/mL, 90 min) adsorbed to the gold surface of a Topas chip, blocked with 1 mg/mL BSA; 500 uL of 0.565 mg/mL IgG1 added for 90 min, rinsed with 10 mM Tris-HCl; impedance at 251 Hz, AC amplitude 10 mV; measured together with SPR in one PDMS flow cell
[2] = target: Protein A (UniProt P38507); test: SPR; Protein A (0.25 mg/mL, 90 min) adsorbed to the gold surface of a Topas chip, blocked with 1 mg/mL BSA; 500 uL of 0.565 mg/mL IgG1 added for 90 min, rinsed with 10 mM Tris-HCl; plateaus in 10 mM Tris-HCl compared; measured together with EIS in one PDMS flow cell

With immunoglobulin-G (IgG1) (antibody) the impedance at 251 Hz after IgG1 and the last rinse [1] was 51 kΩ, the increase in impedance, normalised to the initial value [1] was 18.6% and the local minimum (RU) after IgG1 and the last rinse [2] was 460 RU. It also gave a minimum shift, normalised to the initial value [2] of 35.3%.
